# What was measured:
# human FcγRIIb (human) = human FcγRIIb (human) (UniProt P31994); assay: flow cytometry on CHOS-hCD32b cells (overexpressing human FcγRIIb), anti-human IgG-Fc PE
# [1] = biological target: FcRs expressed by THP-1 cells; assay: flow cytometry on THP-1 cells (self-expressing FcRs), anti-human IgG-Fc PE
# Chain of human FcγRIIb (human) (P31994 43-310): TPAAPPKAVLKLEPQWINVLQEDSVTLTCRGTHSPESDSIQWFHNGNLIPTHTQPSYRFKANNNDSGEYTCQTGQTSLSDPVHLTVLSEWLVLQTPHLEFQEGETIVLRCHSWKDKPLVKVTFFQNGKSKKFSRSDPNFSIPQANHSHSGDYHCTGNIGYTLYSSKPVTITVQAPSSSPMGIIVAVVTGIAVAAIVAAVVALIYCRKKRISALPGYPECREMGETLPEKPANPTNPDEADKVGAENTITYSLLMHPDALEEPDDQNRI
EC50 (human FcγRIIb (human)) [nM],EC50 [1] [nM],Substance
1.35,0.716,Pertuzumab (antibody)
–,0.731,Trastuzumab (antibody)
–,0.462,Urelumab (antibody)

# Reference: patent publication EP4592315A1
